US20100119511A1 (Biogen, published 2010)
Where “and” joins values, the source holds several entries; their conditions need not be identical. Identical values can stand only once.

What was measured:
[1] = target: LTβR on human tumor cells (SKBR-3, HT29) (human, UniProt P36941 31-435); experiment: cell-based or functional assay
[2] = target: T1, HVEM-Ig (species not stated); experiment: ELISA (Table 2; species of HVEM not given)
T1 construct: also called HVEM-Fc
Experimental: (§1) Human and murine ErbB2-Fc were obtained from R&D Systems. Wells of 96-well plates were coated with 2 ug/ml or 0.2 ug/ml of human or murine HER2-Fc by incubation overnight at 4-8° C. with either of these six proteins (80 ul/well of a 0.2 or 2 ug/ml solution in PBS). Wells were emptied, filled completely with a solution of PBS with 1% BSA (blocking buffer) and incubated at room temperature for 1 hour. Wells were emptied, washed twice PBS containing 0.05% Tween 20 (PBST) and filled with the samples (80 ul/well of 3× dilution series of the standard and supernatants in blocking buffer) prepared in another 96-well plate. After a 2-hour incubation at room temperature, the wells were emptied, washed three times with PBST and filled with a solution of HRP-conjugated goat pAbs anti-human kappa chain (80 ul/well of a 2000-fold dilution in blocking buffer). After 1-hour incubation, the wells were emptied and filled with a solution of HRP substrate prepared freshly. The color was left to develop for 3 minutes and was stopped by addition of an equal volume of 1N H₂SO₄. Absorbance was measured at 450 nm using a Plate Reader (SpectraMax, Molecular Devices). The data was processed and graphs were created using SoftMax Pro software.
Human and murine HVEM-Ig were expressed and purified in house.

[3] = target: T2, HER2-Fc (species not stated); experiment: ELISA (Table 2; species of Her2 not given)
T2 construct: probably human
Experimental: as §1

[4] = target: T3, LTβR-Ig (species not stated); experiment: ELISA (Table 2; species of LTbR not given)
T3 construct: also called LTβR-human Fc fusion
T3 sequence (P36941 31-227): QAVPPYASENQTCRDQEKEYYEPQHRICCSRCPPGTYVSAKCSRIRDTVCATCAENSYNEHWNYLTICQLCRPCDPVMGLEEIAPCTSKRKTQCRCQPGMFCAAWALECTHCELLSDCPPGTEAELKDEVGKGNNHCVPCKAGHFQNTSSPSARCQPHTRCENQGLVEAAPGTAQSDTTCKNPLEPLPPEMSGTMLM
Experimental: as §1
Human and murine LTBR-Ig were expressed and purified in house.

[5] = target: T4, human HER2/ErbB2, full length, on cells (human, UniProt P04626 23-1255); experiment: FACS (Table 2; cells not given, Examples 14-16 use SKBR3 or CHO/hHER2)
T4 construct: whole, on cells; also called hHER2/ErbB2; wild type HER2/ErbB

[6] = target: T1, HVEM-Ig (species not stated); experiment: FACS (Table 2; format not given, Example 16 detects HVEM-Fc on cell-bound fusion)
[7] = target: T3, LTβR-Ig (species not stated); experiment: FACS (Table 2; format not given, Example 16 detects LTbR-Ig on cell-bound fusion)
[8] = target: T2, HER2-Fc (species not stated); experiment: biolayer interferometry (Octet), receptor Fc fusion on anti-human Fc sensor, culture supernatant
Experimental: (§2) Anti-human Fc-specific biosensors (Fortebio SKU 18-0001) were hydrated in OB (1×PBS supplemented with 1 mg/ml BSA, 0.05% NaN₃, and 0.02% TWEEN 20) for at least five minutes prior to assays. For each assay, the respective receptor Fc fusion was diluted to 10 μg/ml in OB and allowed to bind to the biosensors for five minutes. The sensors were then incubated in the indicated culture supernatant for an additional five minutes, and subsequently transferred to fresh wells […].

[9] = target: T3, LTβR-Ig (species not stated); experiment: as above
Experimental: as §2

[10] = target: T1, HVEM-Ig (species not stated); experiment: as above
Experimental: as §2

human HER2-Fc = target: T5, human HER2-Fc (human, UniProt P04626 23-652); experiment: ELISA on coated huHER2-Fc, detection anti-human kappa-HRP; value is C (midpoint) of the printed 4-P fit; x axis Fab equivalent concentration
T5 construct: extracellular domain; Homodimeric fusion protein from R&D Systems; also called human ErbB2-Fc; rhErbB2-Fc; not shown: Fc fragment of human IgG1

murine HER2-Fc = target: T6, murine HER2-Fc (mouse; human, UniProt P70424 23-653); experiment: ELISA on coated muHER2-Fc, detection anti-human kappa-HRP; value is C (midpoint) of the printed 4-P fit; x axis Fab equivalent concentration
T6 construct: extracellular domain; Homodimeric fusion protein from R&D Systems; also called murine ErbB2-Fc; not shown: Fc fragment of human IgG1
T6 sequence (P70424 23-653): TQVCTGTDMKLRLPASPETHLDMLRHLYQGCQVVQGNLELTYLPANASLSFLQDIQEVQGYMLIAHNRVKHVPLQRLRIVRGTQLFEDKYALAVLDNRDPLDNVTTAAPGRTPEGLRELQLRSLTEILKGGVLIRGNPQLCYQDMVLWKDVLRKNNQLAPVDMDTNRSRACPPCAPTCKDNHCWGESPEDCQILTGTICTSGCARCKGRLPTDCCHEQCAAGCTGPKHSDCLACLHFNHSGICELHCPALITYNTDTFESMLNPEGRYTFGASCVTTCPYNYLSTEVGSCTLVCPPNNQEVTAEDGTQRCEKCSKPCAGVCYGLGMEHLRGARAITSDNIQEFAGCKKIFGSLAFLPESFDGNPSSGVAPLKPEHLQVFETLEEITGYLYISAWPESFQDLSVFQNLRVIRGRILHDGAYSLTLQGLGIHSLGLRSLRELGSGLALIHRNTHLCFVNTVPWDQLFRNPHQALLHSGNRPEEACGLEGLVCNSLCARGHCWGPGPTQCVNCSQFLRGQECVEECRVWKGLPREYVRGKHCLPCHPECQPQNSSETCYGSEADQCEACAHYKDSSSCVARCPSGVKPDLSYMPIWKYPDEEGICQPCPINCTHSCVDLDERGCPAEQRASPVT

[11] = target: Soluble human LTBR (shuLTBR) (human, UniProt P36941 31-227, limits assumed); experiment: SEC / light scattering
Chain of Soluble human LTBR (shuLTBR) (P36941 31-227 limits assumed): as the sequence (P36941 31-227) above
Experimental: Soluble human LTBR (shuLTBR) was prepared by limited proteolytic digestion of human LTBR-Ig and purified by chromatography on protein A Sepharose and Fractogel TMAE. […] Controls with each protein were also included. The samples were analyzed by SEC using a […] column (Phenomenex) in PBS with a Waters Alliance HPLC instrument.

T1 sequence (Q92956 39-202): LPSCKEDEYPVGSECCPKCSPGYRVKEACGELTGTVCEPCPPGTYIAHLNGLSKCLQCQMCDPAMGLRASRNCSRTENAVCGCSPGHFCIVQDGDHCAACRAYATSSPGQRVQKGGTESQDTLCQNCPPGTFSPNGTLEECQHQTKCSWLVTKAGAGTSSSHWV
Chain of LTβR on human tumor cells (SKBR-3, HT29) (P36941 31-435): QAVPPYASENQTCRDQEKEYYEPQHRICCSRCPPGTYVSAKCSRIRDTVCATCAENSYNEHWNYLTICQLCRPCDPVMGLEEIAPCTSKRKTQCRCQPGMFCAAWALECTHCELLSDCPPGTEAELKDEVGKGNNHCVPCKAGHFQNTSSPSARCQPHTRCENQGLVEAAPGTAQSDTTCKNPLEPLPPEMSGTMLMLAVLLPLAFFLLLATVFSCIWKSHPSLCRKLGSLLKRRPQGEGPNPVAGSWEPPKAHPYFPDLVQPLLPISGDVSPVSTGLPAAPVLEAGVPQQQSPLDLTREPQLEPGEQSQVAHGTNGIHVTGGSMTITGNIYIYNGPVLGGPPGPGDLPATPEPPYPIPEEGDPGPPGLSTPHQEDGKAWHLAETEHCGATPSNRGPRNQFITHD

B1: 71F10 Fab-hLIGHT fusion with the delta 4 linker (BIIB71F10-130) (other)
heavy: EVQLLESGGGLVQPGGSLRLSCAASGFTFSSYGMVWVRQAPGKGLEWVSSISSSGGLTWYADSVKGRFTISRDNSKNTLYLQMNSLRAEDTAVYYCASPPGIAVARDYWGQGTLVTVSSASTKGPSVFPLAPSSKSTSGGTAALGCLVKDYFPEPVTVSWNSGALTSGVHTFPAVLQSSGLYSLSSVVTVPSSSLGTQTYICNVNHKPSNTKVDKKVEPKSCDKLHWRLGEMVTRLPDGPAGSWQERRSHEVNPAAHLTGANSSLTGSGGPLLWETQLGLAFLRGLSYHDGALVVTKAGYYYIYSKVQLGGVGCPLGLASTITHGLYKRTPRYPEELELLVSQQSPCGRATSSSRVWWDSSFLGGVVHLEAGEEVVVRVLDERLVRLRDGTRSYFGAFMV
light: DIQMTQSPSSLSASVGDRVTITCRASQGISNYLAWYQQKPGKVPKLLIYAASTLQSGVPSRFSGSGSGTDFTLTISSLQPEDVATYYCQKYNSALLTFGGGTKVEIKRTVAAPSVFIFPPSDEQLKSGTASVVCLLNNFYPREAKVQWKVDNALQSGNSQESVTEQDSKDSTYSLSSTLTLSKADYEKHKVYACEVTHQGLSSPVTKSFNRGEC
modifications: Assembles as a trimer of heavy/light pairs; one pair is given.
notes: Fab heavy chain fused to human LIGHT extracellular portion; assembles as a trimer (66 kDa x3); also called pBIIB71F10-130; 71F10 Fab-Δ4huLIGHT
What does the source list for B1?
CCL2 (MCP-1) transcript, fold difference test/control, HT29 cells, quantitative RT-PCR [1]: 1050 fold; CCL5 (RANTES) transcript, fold difference test/control, HT29 cells, quantitative RT-PCR [1]: 1220 fold; CCL7 (MCP-3) transcript, fold difference test/control, HT29 cells, quantitative RT-PCR [1]: -527 fold; CCL21 transcript, fold difference test/control, HT29 cells, quantitative RT-PCR [1]: 546 fold; CCR4 transcript, fold difference test/control, HT29 cells, quantitative RT-PCR [1]: 1650 fold; CXCL2 transcript, fold difference test/control, HT29 cells, quantitative RT-PCR [1]: 1130 fold; CXCL3 transcript, fold difference test/control, HT29 cells, quantitative RT-PCR [1]: 1090 fold; CXCL5 (ENA-78/LIX) transcript, fold difference test/control, HT29 cells, quantitative RT-PCR [1]: 1810 fold; CXCL9 transcript, fold difference test/control, HT29 cells, quantitative RT-PCR [1]: 675 fold; CXCL10 (IP-10) transcript, fold difference test/control, HT29 cells, quantitative RT-PCR [1]: 5270 fold; CXCL11 (I-TAC/IP9) transcript, fold difference test/control, HT29 cells, quantitative RT-PCR [1]: 1730 fold; IFNA2 transcript, fold difference test/control, HT29 cells, quantitative RT-PCR [1]: 193 fold; IL5 transcript, fold difference test/control, HT29 cells, quantitative RT-PCR [1]: 940 fold; IL8 transcript, fold difference test/control, HT29 cells, quantitative RT-PCR [1]: 373 fold; IL10RA transcript, fold difference test/control, HT29 cells, quantitative RT-PCR [1]: 3440 fold; LTB transcript, fold difference test/control, HT29 cells, quantitative RT-PCR [1]: 2910 fold; TNF transcript, fold difference test/control, HT29 cells, quantitative RT-PCR [1]: 7370 fold; EC50 [2]: 0.01 nM; EC50 [3]: 0.05 nM; EC50 [4]: 0.01 nM; EC50 [5]: 0.5 nM; EC50 [6]: 0.5 nM; EC50 [7]: 0.2 nM; koff [8]: 0.000112 s⁻¹; koff [9]: 0.000168 s⁻¹; koff [10]: 0.000122 s⁻¹; EC50 (human HER2-Fc): 0.00955 µg/mL; EC50 (murine HER2-Fc): 0.0114 µg/mL

B2: 71F10 Fab-hLIGHT fusion with the (G4S)4 linker (BIIB71F10-132) (other)
heavy: EVQLLESGGGLVQPGGSLRLSCAASGFTFSSYGMVWVRQAPGKGLEWVSSISSSGGLTWYADSVKGRFTISRDNSKNTLYLQMNSLRAEDTAVYYCASPPGIAVARDYWGQGTLVTVSSASTKGPSVFPLAPSSKSTSGGTAALGCLVKDYFPEPVTVSWNSGALTSGVHTFPAVLQSSGLYSLSSVVTVPSSSLGTQTYICNVNHKPSNTKVDKKVEPKSCDKGGGGSGGGGSGGGGSGGGGSNPAAHLTGANSSLTGSGGPLLWETQLGLAFLRGLSYHDGALVVTKAGYYYIYSKVQLGGVGCPLGLASTITHGLYKRTPRYPEELELLVSQQSPCGRATSSSRVWWDSSFLGGVVHLEAGEEVVVRVLDERLVRLRDGTRSYFGAFMV
light: DIQMTQSPSSLSASVGDRVTITCRASQGISNYLAWYQQKPGKVPKLLIYAASTLQSGVPSRFSGSGSGTDFTLTISSLQPEDVATYYCQKYNSALLTFGGGTKVEIKRTVAAPSVFIFPPSDEQLKSGTASVVCLLNNFYPREAKVQWKVDNALQSGNSQESVTEQDSKDSTYSLSSTLTLSKADYEKHKVYACEVTHQGLSSPVTKSFNRGEC
notes: Fab heavy chain fused to human LIGHT extracellular portion; assembles as a trimer; also called 71F10 Fab-(G4S)4-LIGHT
With B2 as the binder, how does the “stoichiometry (shuLTBR per Fab-Light trimer)” value [11] read?
Its value is 2 shuLTBR per trimer and 3 shuLTBR per trimer.
